From patent US20220009989A1

Legend:
Biotinylated PCSK9 = Biotinylated PCSK9 (UniProt Q8NBP7); experiment: PCSK9-LDL-R competitive ELISA (biotinylated PCSK9, coated rhLDL-R), Ki from IC50
[1] = target: solubilised human IR-A (human) (UniProt P06213); experiment: SPA competition vs [125I-A14Y]-human insulin, solubilised hIR-A, 1.5% HSA, relative to human insulin
[2] = target: solubilised human IR-A (human) (UniProt P06213); experiment: SPA competition vs [125I-A14Y]-human insulin, solubilised hIR-A, 0% HSA, relative to human insulin
[3] = target: PCSK9 (10 ug/mL; in-house production) (UniProt Q8NBP7); experiment: cell-based or functional assay

Sequence of solubilised human IR-A (human) (P06213 other isoform, or with tags, fused parts or gaps limits assumed): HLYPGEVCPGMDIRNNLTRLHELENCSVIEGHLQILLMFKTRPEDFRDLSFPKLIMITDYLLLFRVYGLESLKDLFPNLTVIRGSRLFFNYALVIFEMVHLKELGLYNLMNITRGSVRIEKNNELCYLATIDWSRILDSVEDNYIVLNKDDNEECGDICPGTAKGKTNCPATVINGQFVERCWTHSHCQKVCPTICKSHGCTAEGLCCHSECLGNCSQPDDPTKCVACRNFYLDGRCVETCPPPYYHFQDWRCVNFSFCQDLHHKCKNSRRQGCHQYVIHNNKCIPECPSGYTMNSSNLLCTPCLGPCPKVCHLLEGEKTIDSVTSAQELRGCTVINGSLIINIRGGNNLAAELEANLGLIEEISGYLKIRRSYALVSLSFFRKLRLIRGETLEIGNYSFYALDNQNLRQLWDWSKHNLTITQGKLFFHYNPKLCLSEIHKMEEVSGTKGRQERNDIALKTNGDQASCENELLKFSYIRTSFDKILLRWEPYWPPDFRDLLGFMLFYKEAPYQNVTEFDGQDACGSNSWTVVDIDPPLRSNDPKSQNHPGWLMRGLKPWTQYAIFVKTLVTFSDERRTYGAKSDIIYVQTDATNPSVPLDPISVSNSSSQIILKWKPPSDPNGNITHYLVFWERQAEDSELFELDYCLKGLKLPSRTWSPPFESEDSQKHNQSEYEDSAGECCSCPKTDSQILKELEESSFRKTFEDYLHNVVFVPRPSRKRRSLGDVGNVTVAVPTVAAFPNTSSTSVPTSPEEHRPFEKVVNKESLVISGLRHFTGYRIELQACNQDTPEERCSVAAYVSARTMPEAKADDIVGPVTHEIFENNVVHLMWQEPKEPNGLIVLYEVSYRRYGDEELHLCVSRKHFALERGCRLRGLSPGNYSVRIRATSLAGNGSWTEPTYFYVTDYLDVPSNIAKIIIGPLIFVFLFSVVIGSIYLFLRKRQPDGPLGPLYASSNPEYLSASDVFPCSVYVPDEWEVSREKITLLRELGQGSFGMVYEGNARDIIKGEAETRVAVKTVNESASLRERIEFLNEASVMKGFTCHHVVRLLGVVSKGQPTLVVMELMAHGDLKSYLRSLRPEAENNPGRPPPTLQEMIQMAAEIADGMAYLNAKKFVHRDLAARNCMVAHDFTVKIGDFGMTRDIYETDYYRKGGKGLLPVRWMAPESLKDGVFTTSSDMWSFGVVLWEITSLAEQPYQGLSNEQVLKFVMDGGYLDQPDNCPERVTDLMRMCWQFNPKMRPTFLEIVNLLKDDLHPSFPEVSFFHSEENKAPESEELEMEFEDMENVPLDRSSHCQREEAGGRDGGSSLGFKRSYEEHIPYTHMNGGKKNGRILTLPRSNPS

| Substance | Ki (Biotinylated PCSK9) [nM] | hIR-A binding affinity (% rel to HI) [1] | hIR-A binding affinity (% rel to HI) [2] | LDL uptake EC50 (nM) in HepG2 cells [3] [nM] |
| --- | --- | --- | --- | --- |
| EGF(A)(301L, 309R, 312E, 321E)-[GAQP]6-Insulin(A14E, B29K(octadecanedioyl-gGlu-OEG), desB30) | 2.07 | – | – | – |
| EGF(A)(301L, 309R, 312E, 321E)-[GAQP]19-Insulin(A14E, B29K(eicosanedioyl-gGlu-2×OEG), desB30) | – | 0.14 % rel to HI | 2.89 % rel to HI | 126 |
| EGF(A)(301L, 309R, 312E, 321E)-[GAQP]19-Insulin(A14E, B29K(octadecanedioyl-gGlu-2×OEG), desB30) | 2.12 | 0.14 % rel to HI | 2.99 % rel to HI | 123 |
| EGF(A)(301L, 309R, 312E, 321E, 328K(hexadecanedioyl-gGlu-2×OEG), 330K(hexadecanedioyl-gGlu-2×OEG)) (peptide; modification not given) | – | – | – | 152 |

Further substances by falling Ki (Biotinylated PCSK9), results first:

| Ki (Biotinylated PCSK9) [nM] | hIR-A binding affinity (% rel to HI) [1] | hIR-A binding affinity (% rel to HI) [2] | LDL uptake EC50 (nM) in HepG2 cells [3] [nM] | Substance |
| --- | --- | --- | --- | --- |
| 1.92 | – | – | – | EGF(A)(301L, 309R, 312E, 321E)-[GAQP]6-Insulin(A14E, B29K(octadecanedioyl-gGlu-2×OEG), desB30) |
| 1.9 | – | – | – | EGF(A)(301L, 309R, 312E, 321E, 328K(hexadecanedioyl-gGlu-2×OEG), 330K(hexadecanedioyl-gGlu-2×OEG)) (peptide; modification not given; biotinylated (sites not stated)) |
| 1.86 | 0.29 % rel to HI | 4.15 % rel to HI | – | EGF(A)(301L, 309R, 312E, 321E)-[GAQP]19-Insulin(B3E, B29K(eicosanedioyl-gGlu-2×OEG), desB30) |
| 1.75 | – | – | – | EGF(A)(301L, 309R, 312E, 321E)-[GAQP]6-Insulin(A14E, B29K(eicosanedioyl-gGlu-2×OEG), desB30 |
